Source: PMC3883112 (Cell reports, 2013)

Molecular target: T1, GST-Pol32 (full length Pol32) (yeast (S. cerevisiae), UniProt P47110 1-350)
T1 sequence (looked up): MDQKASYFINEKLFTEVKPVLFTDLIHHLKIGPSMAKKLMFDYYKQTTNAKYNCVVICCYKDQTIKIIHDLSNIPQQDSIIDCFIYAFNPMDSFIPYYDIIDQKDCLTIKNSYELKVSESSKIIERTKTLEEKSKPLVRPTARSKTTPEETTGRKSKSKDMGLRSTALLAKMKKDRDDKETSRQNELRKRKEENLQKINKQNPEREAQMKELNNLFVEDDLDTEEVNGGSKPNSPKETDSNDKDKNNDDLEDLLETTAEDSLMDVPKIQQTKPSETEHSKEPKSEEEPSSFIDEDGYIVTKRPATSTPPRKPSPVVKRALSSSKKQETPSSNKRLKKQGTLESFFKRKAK
Assay: pull-down

binding result: binds
B1: Rev7 used in the GST pull-down (natural protein, yeast (S. cerevisiae), UniProt P38927 1-245, looked up)
chain: MNRWVEKWLRVYLKCYINLILFYRNVYPPQSFDYTTYQSFNLPQFVPINRHPALIDYIEELILDVLSKLTHVYRFSICIINKKNDLCIEKYVLDFSELQHVDKDDQIITETEVFDEFRSSLNSLIMHLEKLPKVNDDTITFEAVINAIELELGHKLDRNRRVDSLEEKAEIERDSNWVKCQEDENLPDNNGFQPPKIKLTSLVGSDVGPLIIHQFSEKLISGDDKILNGVYSQYEEGESIFGSLF
